Measured values published in US20040151731A1.

Target: HLA-A, B, C on presenting PBL
Assay: cell-based or functional assay

Substance: W6/32 (anti-HLA-A, B, C) monoclonal antibody
- reduction in γIFN secretion of Long Term AAA cells with PBL presenting cells and collagen: 74%
